Assays:
Peptide_013 = biological target: T1, Peptide_013 (human); assay: peptide microarray, head 0.08 ug (text 0.008 ug/mL)
T1 construct: 15-mer on microarray; not native form, includes recombinant insert region
T1 peptide: HHHHHHVKQIESKTA
Protocol: (§1) 5, 1, 0.2, 0.04, 0.008 and 0.0016 μg/mL serial dilutions were incubated on a single multi-well microarray slide at 30° C. for 1 hour. The slide includes 21 individual mini-arrays (one mini-array per sample dilution).
(§2) DyLight 650 was used as a label. False-positive binding to a peptide was evaluated by performing one additional control incubation in which only a secondary antibody was applied on the same microarray slide. Before performing each step, the microarrays were washed with a washing buffer.

Peptide_018 = biological target: T2, Peptide_018 (human); assay: as above
T2 construct: 15-mer on microarray; not native form, includes recombinant insert region; also called HVKQIESKTAFQEAL
T2 peptide: HVKQIESKTAFQEAL
Protocol: as §1, §2

Peptide_020 = biological target: T3, Peptide_020 (human); assay: as above
T3 construct: 15-mer of hTrx1 on microarray
T3 peptide: KQIESKTAFQEALDA
Protocol: as §1, §2

Peptide_023 = biological target: T4, Peptide_023 (human); assay: as above
T4 construct: 15-mer of hTrx1 on microarray
T4 peptide: ESKTAFQEALDAAGD
Protocol: as §1, §2

Peptide_024 = biological target: T5, Peptide_024 (human); assay: as above
T5 construct: 15-mer of hTrx1 on microarray
T5 peptide: SKTAFQEALDAAGDK
Protocol: as §1, §2

Peptide_025 = biological target: T6, Peptide_025 (human); assay: as above
T6 construct: 15-mer of hTrx1 on microarray
T6 peptide: KTAFQEALDAAGDKL
Protocol: as §1, §2

Peptide_045 = biological target: T7, Peptide_045 (human); assay: as above
T7 construct: 15-mer of hTrx1 on microarray
T7 peptide: SATWCGPCKMIKPFF
Protocol: as §1, §2

Peptide_051 = biological target: T8, Peptide_051 (human); assay: as above
T8 construct: 15-mer of hTrx1 on microarray
T8 peptide: PCKMIKPFFHSLSEK
Protocol: as §1, §2

Peptide_092 = biological target: T9, Peptide_092 (human); assay: as above
T9 construct: 15-mer of hTrx1 on microarray
T9 peptide: PTFQFFKKGQKVGEF
Protocol: as §1, §2

Peptide_093 = biological target: T10, Peptide_093 (human); assay: as above
T10 construct: 15-mer of hTrx1 on microarray
T10 peptide: TFQFFKKGQKVGEFS
Protocol: as §1, §2

Peptide_094 = biological target: T11, Peptide_094 (human); assay: as above
T11 construct: 15-mer of hTrx1 on microarray
T11 peptide: FQFFKKGQKVGEFSG
Protocol: as §1, §2

Peptide_095 = biological target: T12, Peptide_095 (human); assay: as above
T12 construct: 15-mer of hTrx1 on microarray
T12 peptide: QFFKKGQKVGEFSGA
Protocol: as §1, §2

Peptide_010 = biological target: T13, Peptide_010; assay: peptide microarray, anti-mouse IgG DyLight 650, MMC2 heatmap (Example 17)
T13 peptide: QHHHHHHHHVKQIES

Peptide_036 = biological target: T14, Peptide_036; assay: as above
T14 peptide: GDKLVVVDFSATWCG

Peptide_063 = biological target: T15, Peptide_063; assay: as above
T15 peptide: SEKYSNVIFLEVDVD

Peptide_068 = biological target: T16, Peptide_068; assay: as above
T16 peptide: NVIFLEVDVDDCQDV

Peptide_076 = biological target: T17, Peptide_076; assay: as above
T17 peptide: VDDCQDVASECEVKC

Peptide_082 = biological target: T18, Peptide_082; assay: as above
T18 peptide: VASECEVKCMPTFQF

Peptide_088 = biological target: T19, Peptide_088; assay: as above
T19 peptide: VKCMPTFQFFKKGQK

Peptide_101 = biological target: T20, Peptide_101; assay: as above
T20 peptide: QKVGEFSGANKEKLE

Peptide_105 = biological target: T21, Peptide_105; assay: as above
T21 construct: also called EFSGANKEKLEATIN
T21 peptide: EFSGANKEKLEATIN

Peptide_107 = biological target: T22, Peptide_107; assay: as above
T22 peptide: SGANKEKLEATINEL

[1] = biological target: T23, human thioredoxin-1 (Trx1) (human, UniProt P10599 1-105); assay: one site - total fit (Prism) of the ELISA of panel (a); the cell has no unit, the concentrations of panel (a) are in nM; paragraph 183 prints it rounded as 1.3x10^-10 [b]
T23 construct: also called hTrx1; hTRX1
T23 sequence (looked up): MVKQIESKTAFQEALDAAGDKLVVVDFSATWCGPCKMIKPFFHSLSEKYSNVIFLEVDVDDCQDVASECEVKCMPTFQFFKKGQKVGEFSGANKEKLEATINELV
Protocol: 100 μl of a coating buffer and 100 ng of Trx1 were mixed and dispensed to each well, and then reacted at 4° C. for 16 hours or more. After the reaction solution was removed, 200 μl of PBSA was dispensed to each well and reacted at 37° C. for 120 minutes. […] After the reaction solution was removed, washing was performed by dispensing 200 μl of a washing buffer to each well. The above-described process was performed two times.
After the reaction solution was removed, washing was performed by dispensing 200 μl of a washing buffer to each well. The above-described process was performed three times.

Peptide_005 = biological target: T24, Peptide_005 (human); assay: peptide microarray, head 0.08 ug (text 0.008 ug/mL)
T24 construct: 15-mer on microarray; not native form, recombinant insert region
T24 peptide: ADVHSQHHHHHHHHV
Protocol: as §1, §2

B1: monoclonal antibody B264 (antibody, mouse IgG1, kappa, V domains shown)
VH: QVQLQQSGAELARPGASVKMSCKASGYTFTSYTMHWVKQRPGQGLEWIGYINPTSDYTNYNQKFKDKATLTADKSSSTAYMQLSSLTSEDSAVYFCASEGGFLYYFDYWGQGTTLTVSS
VL: DVLMTQTPLSLPVSLGDQASISCRSSQSIVHSNGNTYLEWYLQKPGQSPKLLIYKVSNRFSGVPDRFSGSGSGTDFTLKISRVEAEDLGVYYCFQGSHVPYTFGGGTKLEIKR
notes: also called AB264; B264 (Trx1-mIgG1)
For B1, the “signal (blank-control = 1)” value (Peptide_013) was 0.95, the “signal (blank-control = 1)” value (Peptide_018) was 0.85 and the “signal (blank-control = 1)” value (Peptide_020) was 0.8. The “signal (blank-control = 1)” value (Peptide_023) was 0.91, the “signal (blank-control = 1)” value (Peptide_024) was 1 and the “signal (blank-control = 1)” value (Peptide_025) was 1.03. For the same binder, the “signal (blank-control = 1)” value (Peptide_045) was 5.89, the “signal (blank-control = 1)” value (Peptide_051) was 0.7 and the “signal (blank-control = 1)” value (Peptide_092) was 3.07. The “signal (blank-control = 1)” value (Peptide_093) was 1.53, the “signal (blank-control = 1)” value (Peptide_094) was 1 and the “signal (blank-control = 1)” value (Peptide_095) was 1.15. B1: no binding (tested: 5 ug/mL) (Peptide_010); no binding (tested: 5 ug/mL) (Peptide_036); no binding (tested: 5 ug/mL) (Peptide_063). B1: no binding (tested: 5 ug/mL) (Peptide_068); no binding (tested: 5 ug/mL) (Peptide_076); no binding (tested: 5 ug/mL) (Peptide_082). B1: no binding (tested: 5 ug/mL) (Peptide_088); no binding (tested: 5 ug/mL) (Peptide_101); no binding (tested: 5 ug/mL) (Peptide_105). The binding result (Peptide_107) was “no binding (tested: 5 ug/mL)” and the Kd [1] was 133 pM.

B2: monoclonal antibody B266-1 (antibody, human IgG1)
light: QIVLTQSPAIMSASPGEKVTMTCSASSRISYMYWYQQKPGTSPKRWIYDTSKLASGVPARFSGSGSGTSYSLTISTMEAEDAATYYCHQRSSYPTFGAGTKLELKSVAAPSVFIFPPSDEQLKSGTASVVCLLNNFYPREAKVQWKVDNALQSGNSQESVTEQDSKDSTYSLSSTLTLSKADYEKHKVYACEVTHQGLSSPVTKSFNRGEC
heavy: not shown
notes: B266 with the Fc part changed to human IgG1; also called B266-1 (Trx1-hIgG1); B266-1 (hTrx1-hIgG1)
With B2 the “signal (blank-control = 1)” value (Peptide_005) was 1.28.

— US20240192215A1 (E AND S HEALTHCARE, published 2024)
